Measured values: US20180291081A1 (GUANGZHOU INSTITUTES OF BIOMEDICINE AND HEALTH CHINESE …, published 2018)
Residue numbers refer to the chain shown, from its start.

B1: high affinity PDL-1 molecule L1A4 (ligand)
chain: WTVTVPKDLYVVEYGSNMTIECKFPVEKQLDLAALQVFWMMEDKNIIQFVHGEEDLKVQHSSYRQRARLLKDQLSLGNAALQITDVKLQDAGVYTCLISYGGADYKRITVKVNAPYNKINQRILVVDPVTSEHELTCQAEGYPKAEVIWTSSDHQVLSGKTTTTNSKREEKLFNVTSTLRINTTTNEIFYCTFRRLDPEENHTAELVIPEL
B2: high affinity PDL-1 molecule L32G5 (ligand)
chain: B1 chain with W1F, Q36I, F38Y, M40E, S99G, G101H
B3: high affinity PDL-1 molecule L1F2 (ligand)
chain: B1 chain with W1F, F38N, M40L, T95L
B4: high affinity PDL-1 molecule L3C7a (ligand)
chain: B1 chain with W1F, Q36E, F38H, M40F, I47F, Q48S, S99G, G101K
B5: high affinity PDL-1 molecule L3C7 (ligand)
chain: B1 chain with W1F, Q36E, F38H, M40F, S99G, G101K
B6: high affinity PDL-1 molecule L2D7 (ligand)
chain: B1 chain with W1F, Q36E, F38H, M40F, I47L, Q48S, T95R, L97M
B7: high affinity PDL-1 molecule L2F5 (ligand)
chain: B1 chain with W1F, Q36E, F38H, M40F, I47S, Q48S, T95R, L97M
B8: high affinity PDL-1 molecule L22D5 (ligand)
chain: B1 chain with W1F, F38H, M40F, I47F, Q48S, T95R, L97M
B9: high affinity PDL-1 molecule L3B3b (ligand)
chain: B1 chain with W1F, I47V, Q48S, T95V, S99A, G101K
B10: high affinity PDL-1 molecule L2H3 (ligand)
chain: B1 chain with W1F, F38H, M40F, I47L, Q48S, T95R, L97M
B11: high affinity PDL-1 molecule L3D9 (ligand)
chain: B1 chain with W1F, Q36N, M40F, S99G, G101E
B12: high affinity PDL-1 molecule L3G10 (ligand)
chain: B1 chain with W1F, Q36T, F38A, M40Y, S99G, G101D
B13: high affinity PDL-1 molecule L3B3C (ligand)
chain: B1 chain with I47V, Q48S, T95V, S99A, G101K
B14: high affinity PDL-1 molecule L2G10 (ligand)
chain: B1 chain with W1F, F38H, M40F, I47Y, Q48S, T95R, L97M
B15: high affinity PDL-1 molecule L2B6 (ligand)
chain: B1 chain with W1F, Q36E, F38H, M40F, I47V, Q48S, T95R, L97M, L124R
B16: high affinity PDL-1 molecule L2B8 (ligand)
chain: B1 chain with W1F, F38H, M40F, I47V, Q48S, T95R, L97M
B17: high affinity PDL-1 molecule L3B3a (ligand)
chain: B1 chain with W1F, I47V, Q48S, S99A, G101K
B18: high affinity PDL-1 molecule L22C7 (ligand)
chain: B1 chain with W1F, Q36E, F38H, M40F, Q48S, T95R, L97M
B19: high affinity PDL-1 molecule L3B3d (ligand)
chain: B1 chain with I47L, Q48S, T95V, S99A, G101K
B20: high affinity PDL-1 molecule L2C4 (ligand)
chain: B1 chain with W1F, F38H, M40W, I47V, Q48S, T95R, L97M
B21: high affinity PDL-1 molecule L22A5 (ligand)
chain: B1 chain with W1F, F38H, M40F, I47P, Q48S, T95R, L97M
B22: high affinity PDL-1 molecule L3B3 (ligand)
chain: B1 chain with W1F, S99A, G101K
B23: high affinity PDL-1 molecule L3C7b (ligand)
chain: B1 chain with W1F, Q36E, F38H, M40F, I47F, Q48S, T95V, S99G, G101K
B24: high affinity PDL-1 molecule L3C7c (ligand)
chain: B1 chain with Q36E, F38H, M40F, I47F, Q48S, S99G, G101K
B25: high affinity PDL-1 molecule L1C2 (ligand)
chain: B1 chain with W1F, F38N, M40F, T95V
B26: high affinity PDL-1 molecule L2F4 (ligand)
chain: B1 chain with W1F, Q36E, F38H, M40F, I47F, Q48S, T95R, L97M
B27: high affinity PDL-1 molecule L2A6 (ligand)
chain: B1 chain with W1F, F38H, M40F, I47A, Q48S, T95R, L97M, L124R
B28: high affinity PDL-1 molecule L3C7d (ligand)
chain: WTVTVPKDLYVVEYGSNMTIECKFPVEKQLDLAALEVHWFMEDKNIFSFVHGEEDLKVQHSSYRQRARLLKDQLSLGNAALQITDVKLQDAGVYTCLIGYKGGADYKRITVKVNAPYNKINQRILVVDPVTSEHELTCQAEGYPKAEVIWTSSDHQVLSGKTTTTNSKREEKLFNVTSTLRINTTTNEIFYCTFRRLDPEENHTAELVIPEL

Target: T1, PD-1 molecule (refolded, purified and biotinylated PD-1 of Example 2) (UniProt Q15116 33-150, biotinylated with BirA enzyme (site not stated))
T1 construct: also called Programmed Death-1
T1 sequence (Q15116 33-150 limits assumed): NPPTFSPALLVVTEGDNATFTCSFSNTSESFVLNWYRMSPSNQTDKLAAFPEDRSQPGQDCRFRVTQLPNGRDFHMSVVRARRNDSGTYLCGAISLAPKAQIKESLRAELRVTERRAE
Experiment: SPR (BIAcore T200), single-cycle kinetics; biotinylated PD-1 captured via streptavidin, PDL-1 variant in solution
Procedure: The anti-streptavidin antibody (GenScript) was added to the coupling buffer (10 mM sodium acetate buffer, pH 4.77). The antibody was then flowed through a CMS chip previously activated with EDC and NHS to immobilize the antibody on the chip surface. Finally, the unreacted activation surface was blocked with a solution of ethanolamine hydrochloride to complete the coupling process.
A low concentration of streptavidin is allowed to flow over the surface of the antibody-coated chip, then the biotinylated PD-1 is passed through the detection channel and the other channel is used as a reference channel. Then, 0.05 mM biotin was passed through the chip at a flow rate of 10 μL/min for 2 min to block the remaining binding sites of streptavidin. The single-cycle kinetic analysis method was used to measure its affinity. […] The binding time for each injection was 120 s, and it was disassociated for 600 s after the last injection. The chips were regenerated with 10 mMGly-HCl, pH 1.75 after each round of assays. Kinetic parameters were calculated using BIAcore Evaluation software.

Row | Binder | Kd [µM] | koff [s⁻¹] | kon [M⁻¹ s⁻¹]
1 | B1 | 0.914 | 0.0439 | 48000
2 | B2 | 2.98 | 0.169 | 56600
3 | B3 | 3.44 | 0.104 | 30200
4 | B4 | 0.115 | 0.0139 | 120000
5 | B5 | 0.75 | 0.0329 | 43900
6 | B6 | 10.9 | 0.123 | 11300
7 | B7 | 10.1 | 0.122 | 12200
8 | B8 | 6.48 | 0.268 | 41400
9 | B9 | 0.666 | 0.0573 | 86000
10 | B10 | 8.97 | 0.153 | 17100
11 | B11 | 3.39 | 0.0871 | 25700
12 | B12 | 11.8 | 0.263 | 22200
13 | B13 | 0.648 | 0.044 | 67800
14 | B14 | 4.6 | 0.178 | 38700
15 | B15 | 10.3 | 0.134 | 13000
16 | B16 | 11.7 | 0.15 | 12800
17 | B17 | 0.557 | 0.09 | 162000
18 | B18 | 11.9 | 0.133 | 11200
19 | B19 | 0.964 | 0.0526 | 54500
20 | B20 | 11.2 | 0.124 | 11000
21 | B21 | 4.84 | 0.0559 | 11500
22 | B22 | 0.499 | 0.071 | 142000
23 | B23 | 0.123 | 0.0176 | 143000
24 | B24 | 0.106 | 0.0155 | 147000
25 | B25 | 0.751 | 0.0376 | 50100
26 | B26 | 7.54 | 0.154 | 20500
27 | B27 | 4.74 | 0.0458 | 9670
28 | B28 | 0.0539 | 0.0059 | 109000
